Test results as given in the nanobody polyreactivity screen of Harvey et al. (2022).

Test: yeast display, Sf9 membrane polyspecificity reagent, FACS + sequencing; frameworks hold sequencing errors
In short: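 In a synthetic yeast display library (Saccharomyces cerevisiae BJ5465), nanobody expression was induced with galactose for 36–48 hours. FACS gates were set low and high (top ~1%) using anti-HA fluorescence for expression and streptavidin fluorescence for binding of the Sf9 membrane reagent. Each polyreactivity label is drawn from the gate of origin.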

Sequence | polyreactivity (PSR sort gate)
QVQLVESGGGLVQAGGSLRLSCAASGRIFPPNAMGWYRQAPGKERELVAGITPSGDTTYYADSVKGRFTISRDNAKNTVYIQMNSLKPEDTAVYYCAKDEVYADDRSALFDYWGQGTQVTVSS | low polyreactivity
QVQLVESGGGKVQAGRSHRLTCAASGSIFYTYPMGWYRQAPGKERELVAAIRSSDGSTYYADSVKGRFTISRDYAKNTVYIQMNSLKSEYTGVYYCAAENIPGEGYYHFEYDYWGQGTQVTVSS | low polyreactivity
QVQLVESGGGLVQAGGSLRLSCAASGSIFWYYAMGWYRQAPGKERELVAAISISGSTYYADSVKGRFTISRDNAKNTVYLQMNSLKPEDTAVYYCAARKFFWRSNYDYWGQGTQVTVSS | low polyreactivity
QVQLVESGGGLVQAGVRLRLSCAASGFIFVVNAMGWYRPATRKEREFVAVISSSTGSTYYADSVKGRFTISRDNAKYTVYLPMNSLKPEDTAVYYCAAASRRRRPLKRMDYWGQGTQVTVSS | low polyreactivity
QVQLVESGGGLVQAGGSLRLSCAASGRILAANAMGWYRQAPGKERELVAAISWSGGRTYYADSVKGRFTISRDNAKNTVYLQMNSLKPEDTAVYYCIKLALAGYDYWGQGTQVTVSS | high polyreactivity
QVQLVESGGGLVQAGGSLRLTCAASGFIFPLYTMGWYRQAPGKERELVAAITGSGGSTYYADSVKGRFTISRDNAKNTVYLQMNSLKPEDTAVYYCAKDYTYGMDWGQGTQVTVSS | low polyreactivity
QVQLVESGGGLVQAGGSLRLSCASSGRTFLGYAMGWYRQAPGKERELVAAISYSGSSTYYADSVKGRFTISRDNAKNTVYLQMNSLKPEDTAVYYCAAQFYFLFDYWGQGTQVTVSS | low polyreactivity
QVQLVESGGGLVQAGGSLRLSCAASVSTFDSYVMGWYRQAPGKERELVAAITSGGSTYYADSVKGRFTISRDNAKNTVYLQMNSLKPVDTAVYYCNRDERVGKWGYYWGQGTQVTVSS | low polyreactivity
QVHLVESGGGLVQAGGSLRLSCAASGRTFNVYAMGWYRQAPGKERELVASISSSDTTNYADSVKGRFTISRDNAKNTVYLQMNSLKPEDTAVYYCAADYTPDLLSKVDYWGQGTQVTVSS | low polyreactivity
QVQLVESGGGLVQAGGSLRLSCAASGSIFIDYAMGWYRQAPGKERELVATISNSGTSTYYADSVKGRFTISRDNAKNTVYLQMNSLKPEDTAVYYCAAEAWPYGDYYWGQGTQVTVSS | low polyreactivity
QVQLVESGAGLVQAGGSLRLSCAASGTTFWKYVMGWYRQAPGKERELVAAITSRGGSTYADSVKGRFTISRDNAKNSVYLQMNSLKPEDTAVYYCAATKFWYYGYDYWGQGTQVTVSS | low polyreactivity
QFQHVESGGCLDQAGRSLRLSSAASGYIFVNAMGWYRQPPGKEMELVAAISSGGSTHYADSVKGRFTISRDNAKYTVYLQMNSLKPEDTAVYYCAAGSFYYGIVQGWYDYWGQGTQVTVSS | high polyreactivity
QVQLVESGGGLVQAGCSLRLSCAASGFILNWYAMGCYRQAPGKERELVAAISWTTSDTYYADSVKGRFTISRDNAKHTVYLQMNSLKPEDQAVYYCATQGYISFPPPAYYEYNYWGQGTQETVSS | low polyreactivity
QVQLVESGGGLVQAGGSLRLSCAASGSIFGDYAMGWYRQAPGKEREFVAGITRRGGRTYYADSVKGRFTISRDNAKNTVYLQMNSLKPEETAVYYCNAVYSSSLRSKYDYWGQGTQVTVSS | high polyreactivity
QVQLVESGGGLVQAGGSLRLSCAASGSIFVGYVMGWYRQAPGKERELVAAISRSGGRTYYADSVKGRFTISRDNAKNTVYLQMNSLKPEDTAVYYCNADVIDLDYDYWGQGTQVTVSS | low polyreactivity
QVQLVESGGGLVQAGGSLRLSCAASGRIFPSNAMGWYRQAPGKERELVAAISVSGGSTYYADSVKGRFTISRDNAKNTVYLQMNSLKPEDTAVYYCAVRAWDPYTGKSDYWGQGTQVTVSS | low polyreactivity
QVQLVESGGGLVQAGGSLRLSCAASGSTIFENVMGWYRQAPGKEREFVAAINTSGGSTYYADSVKGRFTISRDNAKNTVYLQMNILKPEDTAVYYCARDSYWELDYWGQGTQVTVSS | low polyreactivity
